Results reported in patent publication US20250212928A1.

Molecular target: bovine trypsin (bovine) (UniProt P00760)
Experiment: cell-based or functional assay

Chain of UniProt P00760 (P00760 24-246): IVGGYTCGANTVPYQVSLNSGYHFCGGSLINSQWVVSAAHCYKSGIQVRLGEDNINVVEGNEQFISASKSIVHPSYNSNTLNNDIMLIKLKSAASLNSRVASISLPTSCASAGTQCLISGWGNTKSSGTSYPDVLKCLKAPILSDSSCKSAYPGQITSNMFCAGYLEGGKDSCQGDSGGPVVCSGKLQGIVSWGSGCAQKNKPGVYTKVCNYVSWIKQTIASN

Trypsin inhibition activity: 13700 TIU/g
Substance: native chicken ovomucoid (nOVD), from chicken egg white (from UniProt P01005 25-210)
